This is an account of results in doi:10.1101/2021.02.22.432116 (bioRxiv, 2021).

First the molecules themselves.
B1: UBQLN2 109-576 (domain or fragment, human, UniProt Q9UHD9 109-576, looked up)
chain: QGQSTQPSNAAGTNTTSASTPRSNSTPISTNSNPFGLGSLGGLAGLSSLGLSSTNFSELQSQMQQQLMASPEMMIQIMENPFVQSMLSNPDLMRQLIMANPQMQQLIQRNPEISHLLNNPDIMRQTLEIARNPAMMQEMMRNQDLALSNLESIPGGYNALRRMYTDIQEPMLNAAQEQFGGNPFASVGSSSSSGEGTQPSRTENRDPLPNPWAPPPATQSSATTSTTTSTGSGSGNSSSNATGNTVAAANYVASIFSTPGMQSLLQQITENPQLIQNMLSAPYMRSMMQSLSQNPDLAAQMMLNSPLFTANPQLQEQMRPQLPAFLQQMQNPDTLSAMSNPRAMQALMQIQQGLQTLATEAPGLIPSFTPGVGVGVLGTAIGPVGPVTPIGPIGPIVPFTPIGPIGPIGPTGPAAPPGSTGSGGPTGPTVSSAAPSETTSPTSESGPNQQFIQQMVQALAGANAPQLP
B2: UBQLN2 UBL domain (UBQLN2 1-107) (domain or fragment, human, UniProt Q9UHD9 1-107, looked up)
chain: MAENGESSGPPRPSRGPAAAQGSAAAPAEPKIIKVTVKTPKEKEEFAVPENSSVQQFKEAISKRFKSQTDQLVLIFAGKILKDQDTLIQHGIHDGLTVHLVIKSQNR
B4: UBQLN2 248-576 (domain or fragment, human, UniProt Q9UHD9 248-576, looked up)
chain: MRNQDLALSNLESIPGGYNALRRMYTDIQEPMLNAAQEQFGGNPFASVGSSSSSGEGTQPSRTENRDPLPNPWAPPPATQSSATTSTTTSTGSGSGNSSSNATGNTVAAANYVASIFSTPGMQSLLQQITENPQLIQNMLSAPYMRSMMQSLSQNPDLAAQMMLNSPLFTANPQLQEQMRPQLPAFLQQMQNPDTLSAMSNPRAMQALMQIQQGLQTLATEAPGLIPSFTPGVGVGVLGTAIGPVGPVTPIGPIGPIVPFTPIGPIGPIGPTGPAAPPGSTGSGGPTGPTVSSAAPSETTSPTSESGPNQQFIQQMVQALAGANAPQLP
B5: UBQLN2 UBA domain (UBQLN2 571-624) (domain or fragment, human, UniProt Q9UHD9 571-624, looked up)
chain: NAPQLPNPEVRFQQQLEQLNAMGFLNREANLQALIATGGDINAAIERLLGSQPS

Where “and” joins values, the source holds several entries; their conditions need not be identical. Equal values may be shown once. Read-outs that look alike come from different tables or passages of the source.

Holding throughout (assay): NMR titration
The target of assay [1] is B5.
For assay [2], the target named is B1.
Assay [3] concerns the target UBQLN2 379-576 (human, UniProt Q9UHD9 379-576).
Assay [4] concerns the target B4.
Assay [5] addresses UBQLN2 178-576 (human, UniProt Q9UHD9 178-576).
Assay [6] concerns the target B1. The source holds these as a separate data set.
Assay [7] has as its target B2.
For assay [8], the target named is B2. The source holds these as a separate data set.

The Kd is the constant that tells how readily two partners part at equilibrium.

Regarding B1, the “UBA peak intensity relative to isolated UBA” value in assay [1] was 60%.
For B2, the binding result in assay [2], in assay [3], in assay [4] and in assay [5] was “binds” each time.

B3: UBQLN2 UBL I80A (domain or fragment, human, UniProt Q9UHD9 1-107, looked up)
chain: MAENGESSGPPRPSRGPAAAQGSAAAPAEPKIIKVTVKTPKEKEEFAVPENSSVQQFKEAISKRFKSQTDQLVLIFAGKALKDQDTLIQHGIHDGLTVHLVIKSQNR
For the molecule B3, the binding result in assay [6] was “binds”.
As for B4, in assay [7], the “UBL peak intensity relative to isolated UBL” value came out at 70%.
For B5, the Kd in assay [8] is 178 µM and 210 µM.
